In one assay the target is T1, human VEGF-A121 (human, UniProt P15692 207-395).
T1 sequence: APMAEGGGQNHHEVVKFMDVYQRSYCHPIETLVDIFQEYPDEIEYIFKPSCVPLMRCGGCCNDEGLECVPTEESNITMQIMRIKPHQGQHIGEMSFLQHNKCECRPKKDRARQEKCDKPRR
Put plainly: cell-based or functional assay.

The target of assay [1] is T2, VEGF-121-His (inhouse production) (human, UniProt P15692 207-395).
T2 construct: His-tagged human VEGF-A121 used in the ELISAs and (captured by an anti-His antibody) in SPR; also called hVEGF-A121; his VEGF; not shown: His tag
T2 sequence: T1 sequence
The assay is described as follows: Biacore, Fab stressed 2 w/37° C./pH 7.4. Here is the method: (§1) Antibody samples were formulated in 20 mM His/HisCl, 140 mM NaCl, pH 6.0, and were split into three aliquots: one aliquot was re-buffered into PBS, respectively, and two aliquots were kept in the original formulation. The PBS aliquot and one His/HisCl aliquot were incubated for 2 weeks (2 w) at 40° C. (His/NaCl) or 37° C. (PBS) in 1 mg/ml, the PBS sample was incubated further for total 4 weeks (4 w). The third control aliquot sample was stored at −80° C.

Assay [2] has as its target T2, VEGF-121-His (inhouse production). Put plainly: Biacore, Fab stressed 2 w/40° C./pH 6.0. The method, then:
as §1
On the technique in general: In SPR one partner is held on a chip, and binding of the other changes the refractive index at the surface.

Assay [3] has the same target. The assay is described as follows: Biacore, Fab stressed 4 w/37° C./pH 7.4. Here is the method:
as §1

Assay [4] shares this target. Put plainly: direct ELISA on plate-coated VEGF-121-His. The method, then:
After washing 3 times with 90 μl/well PBST-buffer (bidest water, 10×PBS Roche #11666789001+0.1% Tween® 20) blocking buffer (bidest water, 10×PBS Roche #11666789001+2% Bovine Serum Albumin Fraction V, fatty acid free, Roche, #10735078001+0.05% Tween® 20) was added 90 μl/well and incubated for 1 h at room temperature. […] After incubation for 1 h at room temperature, plates were again washed 3 times with 90 μl/well PBST-buffer. […] After washing 3 times with 90 μl A PBST-buffer, 25 μl TMB (Roche, #11 835 033 001) was added to each well. After 3 min incubation at RT, signals were detected at 370 nm/492 nm on a Tecan Safire 2 Reader.
(An ELISA detects its analyte on a solid surface through an enzyme-linked reagent.)

For assay [5] the target is unchanged. The assay is described as follows: SPR (Biacore), hVEGF-A121 captured by anti-His antibody, Fab injected, 25° C. Here is the method: (§2) The surface was regenerated by injecting 10 mM Glycine pH 1.5 for 60s. […] Rate constants were calculated using the Langmuir 1:1 binding model within the Biacore® Evaluation software.
(§3) The affinity of the antibodies was determined by SPR using the same methods as described in Example 2. All Fab fragments as listed in table 1 and table 2 were tested.

The target is the same in assay [6]. Put plainly: SPR (Biacore), hVEGF-A121 captured by anti-His antibody, Fab injected, 37° C. Here is the method: as §2, §3
The target is the same in assay [7]. Put plainly: SPR (Biacore), hVEGF-A121 captured by anti-His antibody, Fab injected, 25° C. Here is the method: as §2
(§4) The affinity of the antibodies was determined by SPR using the same methods as described in Example 2. All Fab fragments of antibodies of the invention as listed in table 1 and table 5 were tested.
This is another data set of the same source.

The target is the same in assay [8]. The assay is described as follows: SPR (Biacore), hVEGF-A121 captured by anti-His antibody, Fab injected, 37° C. The method, then:
as §2, §4
The source holds these as a separate data set.

The target is the same in assay [9]. Put plainly: inhibition ELISA: antibody titrated against 0.4 nM VEGF-121-His; blocked partner plate-bound biotinylated VEGF-R2; anti-His POD readout.
Assay [10] has the same target. Put plainly: inhibition ELISA: antibody titrated against 0.7 nM VEGF-121-His; blocked partner plate-bound biotinylated VEGF-R2; anti-His POD readout. Here is the method:
Plates were incubated for 1 h at room temperature. […] Plates were incubated for 1 h at room temperature. […] After washing 3 times with 90 μl/well PB ST-buffer, 25 μl/well detection antibody (anti His POD, Bethyl, #A190-114P, 1:12000) in 1×OSEP was added. After incubation for 1 h at room temperature plates were washed 3 times with 90 μl PBST-buffer. 25 μl TMB (Roche, #11 835 033 001) was added to all wells simultaneously. After 10 min incubation at room temperature, signals were detected at 370 nm/492 nm on a Tecan Safire 2 Reader.

Assay [11] shares this target. The assay is described as follows: inhibition ELISA: antibody titrated against 0.7 nM VEGF-121-His; blocked partner plate-bound biotinylated VEGF-R1; anti-His POD readout.

Numbering of substitutions follows the chain as printed.

B1: VEGF-0113 Fab fragment (Fab, V domains shown)
VH: EVQLVESGGGLVQPGGSLRLSCAASGFTFTNYAMTWVRQAPGKGLEWVSSIGNGPGIYTYYADSVKGRFTISRDNSKNTLYLQMNSLRAEDTAVYYCAKGDNLFDSWGPGTLVTVSS
VL: DIQMTQSPASLSASVGDRVTITCRASQSIYSSLNWYQQKPGKAPKLLIYASTLQSGVPSRFSGSASGTDFTLTISSLQPEDVATYYCQQYQNFPRTFGQGTKLEIKR
notes: Variant of VEGF-0089 (G to P at position 6 of H-CDR2); Fab with rabbit derived CLkappa and CH1
As for B1, in the assay with human VEGF-A121, the “IC50 in reporter gene assay (HEK293-NFAT-RE-Luc2P/KDR cells, luminescence, 25 ng/ml VEGF-A121)” value is 0.63 nM. The results for the “VEGF-binding activity after stress (relative active concentration, normalized to unstressed aliquot)” value in [1], in [2] and in assay [3] were 103, 103 and 101, respectively. In assay [4], the EC50 (read off the curve) (in general, the midpoint of the concentration-response curve) is around 0.3 nM. Besides, the equilibrium dissociation constant (Kd) (in general, the concentration at which binding is half-saturated) in assay [5] was 0.021 nM; in assay [6], 0.017 nM; in [7], 0.022 nM; in assay [8], 0.029 nM. For the same molecule, the figures for the “IC50 (read off the curve)” value in assay [9] and in assay [10] were around 0.2 nM and around 2 nM, respectively.

B2: VEGF-P1AD8675 Fab fragment (Fab, V domains shown)
VH: B1 VH with P55G, S76W
VL: B1 VL
As to B2, the “VEGF-binding activity after stress (relative active concentration, normalized to unstressed aliquot)” value in [1] is 102; in assay [2], 101; in assay [3] it was 109. Further, the equilibrium dissociation constant (Kd) in assay [7] was 0.088 nM; in assay [8] it was 0.065 nM.

B3: VEGF-0114 Fab fragment (Fab, V domains shown)
VH: EVQLVESGGGLVQPGGSLRLSCAASGFTFTNYAMTWVRQAPGKGLEWVSSIGSGGFYTYYADSVKGRFTISRDNSKNTLYLQMNSLRAEDTAVYYCAKGDNLFDSWGPGTLVTVSS
VL: B1 VL
notes: Fab with rabbit derived CLkappa and CH1; also called VEGR-0114 Fab
With B3, the “IC50 in reporter gene assay (HEK293-NFAT-RE-Luc2P/KDR cells, luminescence, 25 ng/ml VEGF-A121)” value with human VEGF-A121 worked out at 1.34 nM. The “VEGF-binding activity after stress (relative active concentration, normalized to unstressed aliquot)” value in [1] is 102; in assay [2], 99; in [3], 99. The “EC50 (read off the curve)” value in assay [4] was around 0.3 nM. Further, the Kd in [5] came out at 0.055 nM; in assay [6], 0.056 nM; in assay [7], 0.05 nM; in [8], 0.054 nM. Besides, the “IC50 (read off the curve)” value in assay [9] is around 0.3 nM.

B4: VEGF-P1AE3520 Fab fragment (Fab, V domains shown)
VH: B1 VH with S76W
VL: B1 VL
For the molecule B4, the entries for the “VEGF-binding activity after stress (relative active concentration, normalized to unstressed aliquot)” value in [1], in assay [2] and in [3] were 102, 100 and 101, respectively. For the same molecule, the equilibrium dissociation constant (Kd) in assay [7] was determined as 0.031 nM; in assay [8], 0.039 nM.

B5: VEGF-P1AE3521 Fab fragment (Fab, V domains shown)
VH: B3 VH with S75W
VL: B1 VL
For B5, the “VEGF-binding activity after stress (relative active concentration, normalized to unstressed aliquot)” value is 103 in [1], 101 in assay [2] and 99 in [3]. For the same molecule, the dissociation constant Kd turned out to be 0.032 nM in assay [7] and 0.061 nM in assay [8].

B6: r84 full length IgG1 antibody (antibody, V domains shown)
VH: QVQLVQSGAEVKKPGASVKVSCKASGGTFSSYAISWVRQAPGQGLEWMGGFDPEDGETIYAQKFQGRVTMTEDTSTDTAYMELSSLRSEDTAVYYCATGRSMVRGVIIPFNGMDVWGQGTTVTVSS
VL: not shown
notes: Full length IgG1; also called r84 IgG1
As to B6, the binding result in assay [4] is “binds”.

B7: r84 Fab fragment (Fab, V domains shown)
VH: B6 VH
VL: not shown
notes: Prior art antibody disclosed in WO 2009060198, made here as Fab
Regarding B7, the binding result in assay [4] was “binds”.

B8: L3H6 Fab fragment (Fab, V domains shown)
VH: QVQLVQSGAEVKKPGESLKISCKGSGYSFTSYWIGWVRQMPGKGLEWMGIIYPGDSDTRYSPSFQGQVTISADKSISTAYLQWSSLKASDTAMYYCARQGTHNRKIWGQGTMVTVSS
VL: QAVVTQEPSLTVSPGGTVTLTCASSTGAVTSGNYPNWFQQRPGQPPRALIYSTSNKHSWTPARFSGSLLGGKAALTLSGAQPEDEAEYYCRLSYDLARPVFGGGTKLTVLG
notes: Prior art antibody disclosed in WO 2012089176, made here as Fab
As for B8, the “EC50 (read off the curve)” value in assay [4] was around 0.3 nM. Further, the Kd in assay [5] was found to be 3.36 nM; in assay [6], 4.52 nM.

B9: HF2-1 Fab fragment (Fab, V domains shown)
VH: EVQLVESGGGLVQPGGSLRLSCAASNFVFRSHGMQWVRQAPGKGLEYVAGISSDGSWTGYGAAVEGRFTISRDDSKNTAYLQMNSLRAEDTAVYYCARDFSTGYGADSIDAWGQGTLVTVSS
VL: DIQMTQSPSSLSASVGDRVTITCSGGSDSAYGYGWYQQKPGKAPKTLIYWDDKRPSGVPSRFSGSRSGTDFTLTISSLQPEDFATYYCGAWEYSGGVGIFGQGTKVEIKR
notes: Prior art antibody disclosed in EP3006465
Take B9: the dissociation constant (Kd) came out at 0.279 nM in assay [7] and 0.574 nM in assay [8].

B10: HF2-9 Fab fragment (Fab, V domains shown)
VH: B9 VH with N26M, V28R, F29I, T58F, G59R, Y60V, G61A
VL: B9 VL with D28M, S29E, A30P, Y31L
notes: as for B9
B10: the Kd in assay [7] turned out to be 0.024 nM; in assay [8], 0.051 nM. In assay [11], the “IC50 (read off the curve)” value is around 0.7 nM.

B11: HF2-11 Fab fragment (Fab, V domains shown)
VH: B9 VH with N26G, V28L, F29I, T58V, G59K, Y60V, G61A
VL: B9 VL with D28S, S29E, A30P, Y31L
notes: as for B9
Turning to B11, the results for the dissociation constant (Kd) in [7] and in [8] were 0.032 nM and 0.062 nM, respectively. Besides, the “IC50 (read off the curve)” value in assay [11] was around 1 nM.
